Measured values published in patent US6518063.

Target: OSF2/CBFA1b (lacks 22 aa of exon 8) deletion of 22 aa encoded by exon 8 (Homo sapiens) (UniProt Q13950)
Test: cell_activity
Conditions: p6OSE2-luc, F9 cells

Sequence of OSF2/CBFA1b (lacks 22 aa of exon 8) deletion of 22 aa encoded by exon 8 (Homo sapiens) (Q13950 whole entry, stated change not applied): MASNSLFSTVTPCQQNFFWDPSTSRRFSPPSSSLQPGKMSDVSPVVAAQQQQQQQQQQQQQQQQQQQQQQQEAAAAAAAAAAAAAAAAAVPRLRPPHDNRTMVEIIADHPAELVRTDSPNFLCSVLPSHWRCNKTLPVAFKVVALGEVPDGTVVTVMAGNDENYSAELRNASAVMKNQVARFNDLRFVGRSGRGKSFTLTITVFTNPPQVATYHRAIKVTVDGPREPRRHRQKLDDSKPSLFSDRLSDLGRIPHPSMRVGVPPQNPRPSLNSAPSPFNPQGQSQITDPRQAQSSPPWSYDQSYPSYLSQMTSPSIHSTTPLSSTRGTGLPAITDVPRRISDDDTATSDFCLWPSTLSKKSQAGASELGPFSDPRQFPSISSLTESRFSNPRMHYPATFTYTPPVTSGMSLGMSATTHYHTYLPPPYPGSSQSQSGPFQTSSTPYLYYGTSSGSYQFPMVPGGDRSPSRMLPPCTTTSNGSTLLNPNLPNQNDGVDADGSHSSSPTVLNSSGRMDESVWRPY

With “AGCTGCAATCACCAACCACAGCA (double strand) [Osteocalcin (OG2) OSE2]” the activity (fold activation) was 40.
